Results published in patent US20020106374A1.

Biological target: HIV-1JR-FL envelope glycoproteins gp120/gp41 (HIV-1 JR-FL)
Assay: cell-based or functional assay

Substance | IC90, inhibition of HIV-1JR-FL Env-mediated cell-cell fusion (RET assay) [nM] | IC90, inhibition of HIV-1JR-FL virus-cell fusion (luciferase reporter virus, HeLa-CD4+CCR5+ cells) [nM] | K (equal to IC50), inhibition of env-mediated membrane fusion (RET) between HeLa-EnvJR-FL and PM1 cells [µg/mL] | activity in the RET assay after co-incubation of HeLa-Env cells, PM1 cells and inhibitor for 2 h at 25° C., washing and warming to 37° C. [fold lower] | potency in the washout RET assay (drug pre-incubated with HeLa-Env cells, washed, then PM1 cells added) against the standard assay [fold lower] | increase in IC50 in the RET assay after co-incubation of HeLa-Env cells, PM1 cells and inhibitor for 2 h at 25° C., washing and warming to 37° C. (fold increase in IC50)
CD4-IgG2 (from UniProt P01730 26-203; P01730 26-203) (Fc fusion) | 11 | 12 | 0.31 | 12 | 6 | –
T-20 (peptide) | 22 | 45 | 0.017 | – | – | > 250
